T1: hNpr3 (Homo sapiens, UniProt P17342)
T1 construct: host or cells: FreeStyle293 cells (transient transfection)
T1 sequence (P17342 27-540 isoform P17342-2 limits assumed): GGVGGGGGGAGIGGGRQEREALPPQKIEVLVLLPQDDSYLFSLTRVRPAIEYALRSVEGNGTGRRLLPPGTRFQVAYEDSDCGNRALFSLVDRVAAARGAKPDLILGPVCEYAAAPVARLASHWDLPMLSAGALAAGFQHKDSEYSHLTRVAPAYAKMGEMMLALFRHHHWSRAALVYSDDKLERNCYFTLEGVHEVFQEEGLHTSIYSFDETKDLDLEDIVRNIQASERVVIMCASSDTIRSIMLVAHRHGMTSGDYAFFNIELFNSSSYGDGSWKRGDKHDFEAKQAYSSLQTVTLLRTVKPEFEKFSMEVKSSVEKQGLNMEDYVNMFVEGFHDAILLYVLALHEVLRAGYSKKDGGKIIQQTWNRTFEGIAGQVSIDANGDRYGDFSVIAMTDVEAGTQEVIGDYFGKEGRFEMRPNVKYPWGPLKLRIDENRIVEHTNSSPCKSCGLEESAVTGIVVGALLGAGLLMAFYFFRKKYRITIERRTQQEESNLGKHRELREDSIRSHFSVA

B1: musclin: skeletal muscle specific secretory protein (protein, UniProt P61366 28-133, looked up)
Osteocrin: VDVTTTEAFDSGVIDVQSTPTVREEKSATDLTAKLLLLDELVSLENDVIETKKKRSFSGFGSPLDRLSAGSVDHKGKQRKVVDHPKRRFGIPMDRIGRNRLSNSRG
B2: BK-labeled mMusclin: labeled mMusclin incorporating about 5 molecules of biotin/1 molecule of mMusclin (Sulfo-NHS-LC-Biotin) (protein)
chain: LASQEFGTASLQSPPTAREEKSATELSAKLLRLDDLVSLENDVFETKKKRSFSGFGSPLDRLSAGSVEHRGKQRKAVDHSKKRFGIPMDRIGRNRLSSSRG
B3: BC-labeled mMusclin: His-Tyr-Cys-mMusclin labeled with about 1 molecule of biotin at the introduced Cys residue (Maleimide PEO2 Biotin) (protein)
chain: MGSSHHHHHHSSGLVPYGCHMLASQEFGTASLQSPPTAREEKSATELSAKLLRLDDLVSLENDVFETKKKRSFSGFGSPLDRLSAGSVEHRGKQRKAVDHSKKRFGIPMDRIGRNRLSSSRG
B4: full-length mMusclin: purified full-length mouse musclin protein, cleaved from thioredoxin fusion, expressed in Escherichia coli (protein)
chain: LASQEFGTASLQSPPTAREEKSATELSAKLLRLDDLVSLENDVFETKKKRSFSGFGSPLDRLSAGSVEHRGKQRKAVDHSKKRFGIPMDRIGRNRLSSSRG
B5: His-Tyr-Cys-mMusclin: His-tag Tyr Cys mouse musclin protein, ORF of SEQ ID NO:8 (protein)
chain: MGSSHHHHHHSSGLVPYGCHMLASQEFGTASLQSPPTAREEKSATELSAKLLRLDDLVSLENDVFETKKKRSFSGFGSPLDRLSAGSVEHRGKQRKAVDHSKKRFGIPMDRIGRNRLSSSRG
modifications: His-tag, Tyr, Cys

Molecular target: T1, hNpr3
Experiment: Binding of biotin-labeled mMusclin to hNpr3-expressing FreeStyle293 cells (PE-labeled Streptavidin staining), with competition by unlabeled ligands
Conditions: for change in the binding of labeled mMusclin in the presence of a known NPR3 ligand: competitor at 10 μM; for change in the binding of labeled mMusclin in the presence of a known NPR3 ligand / change in the binding of labeled mMusclin in the presence of the unlabeled protein: BK- or BC-labeled mMusclin 0.5 μg/ml, hNpr3-expressing FreeStyle293 cells; for change in the binding of labeled mMusclin in the presence of the unlabeled protein: competitor at 100 μg/ml; for binding of labeled mMusclin to cells transfected with hNpr3 expression vector: 0.5 μg/ml labeled mMusclin, 4° C. 30 minutes, 0.3 μg (Low) or 1.0 μg (high) hNpr3 vector per 1.0×10^6 FreeStyle293 cells
Procedure: A hNpr3 expression vector (hNpr3/pCMV6-XL4, NM_000908 Clone #PL1154_A07) was purchased from OriGene. 0.3 μg (Low) or 1.0 μg (high) of the hNpr3 expression vector was transfected transiently per 1.0×10^6 FreeStyle293 cells by a conventional method; 48 hours later, the cells were collected and suspended in PBS-1.0% BSA at 5×10^6 cells/ml. A 1-ml portion of each cell lyzate was incubated with a final concentration of 0.5 μg/ml of BK-mMusclin or BC-mMusclin at 4° C. for 30 minutes; after 1 time of washing, the lyzate was stained with PE-labeled Streptavidin, and the cells bound to each Musclin were analyzed. Also, incubation was performed in the presence of 100 μg/ml full-length mMusclin, mCA, or His-Tyr-Cys-mMusclin, or 10 μM ANP (Atrial Natriuretic Peptide, Rat, Mouse), CANP (Atrial Natriuretic Peptide 4-23—NH2 Des-[Gln18 Ser19 Gly20 Leu21 Gly22], Rat), or LANP (Atrial Natriuretic Peptide 104-126 Des-[Cys105 Cys121], Rat) (Phoenix Pharmaceuticals, Inc.), whereby changes in the binding of labeled mMusclin were examined.

Molecule | change in the binding of labeled mMusclin in the presence of a known NPR3 ligand | change in the binding of labeled mMusclin in the presence of the unlabeled protein | further results
Atrial Natriuretic Peptide 4-23—NH2 Des-[Gln18 Ser19 Gly20 Leu21 Gly22], Rat [CANP, reference compound] | the binding nearly disappeared | – | –
mCA: C-Terminal mMusclin (mCA) protein, cleaved from thioredoxin fusion (SFSGFGSPLDRLSAGSVEHRGKQRKAVDHSKKRFGIPMDRIGRNRLSSSRG) | – | the binding nearly disappeared | –
Atrial Natriuretic Peptide 104-126 Des-[Cys105 Cys121], Rat (SFGGRIDRIGAQSGLGNSFRY) [LANP, known ligand of the NPR3 molecule (Phoenix Pharmaceuticals, Inc.), reference compound] | the binding nearly disappeared | – | –
Atrial Natriuretic Peptide, Rat, Mouse (SLRRSSCFGGRIDRIGAQSGLGCNSFRY) [ANP, known ligand of the NPR3 molecule (Phoenix Pharmaceuticals, Inc.), reference compound] | the binding nearly disappeared | – | –
B1 | – | – | bindability of musclin to natriuretic peptide receptors (NPR1, NPR2, NPR3) (summary statement): binds specifically to the receptor NPR3
B2 | – | – | binding of labeled mMusclin to cells transfected with hNpr3 expression vector: bound dependently on the amount of the hNpr3 gene introduced into the cells
B3 | – | – | binding of labeled mMusclin to cells transfected with hNpr3 expression vector: bound dependently on the amount of the hNpr3 gene introduced into the cells
B4 | – | the binding nearly disappeared | –
B5 | – | the binding nearly disappeared | –
